Results published in IntAct's records for PubMed 29892012.

B1: Keratin, type I cuticular Ha8 (Homo sapiens), O76015 (parent)
chain: MTSSYSSSSCPLGCTMAPGARNVSVSPIDIGCQPGAEANIAPMCLLANVAHANRVRVGSTPLGRPSLCLPPTCHTACPLPGTCHIPGNIGICGAYGENTLNGHEKETMQFLNDRLANYLEKVRQLEQENAELEATLLERSKCHESTVCPDYQSYFHTIEELQQKILCSKAENARLIVQIDNAKLAADDFRIKLESERSLRQLVEADKCGTQKLLDDATLAKADLEAQQESLKEEQLSLKSNHEQEVKILRSQLGEKLRIELDIEPTIDLNRVLGEMRAQYEAMLETNRQDVEQWFQAQSEGISLQDMSCSEELQCCQSEILELRCTVNALEVERQAQHTLKDCLQNSLCEAEDRFGTELAQMQSLISNVEEQLSEIRADLERQNQEYQVLLDVKTRLENEIATYRNLLESEDCKLPCNPCSTSPSCVTAPCAPRPSCGPCTTCGPTCGASTTGSRF
partner: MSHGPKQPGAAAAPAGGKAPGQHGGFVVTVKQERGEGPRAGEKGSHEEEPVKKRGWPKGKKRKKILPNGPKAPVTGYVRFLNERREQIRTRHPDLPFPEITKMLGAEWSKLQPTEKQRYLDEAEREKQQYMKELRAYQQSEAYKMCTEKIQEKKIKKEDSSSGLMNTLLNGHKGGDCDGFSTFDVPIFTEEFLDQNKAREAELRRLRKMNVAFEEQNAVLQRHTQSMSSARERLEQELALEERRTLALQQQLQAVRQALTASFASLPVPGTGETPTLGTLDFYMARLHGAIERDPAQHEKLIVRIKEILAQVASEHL
B2: CLK4-associating serine/arginine rich protein (Homo sapiens), Q8N2M8 (parent)
chain: MWHEARKHERKLRGMMVDYKKRAERRREYYEKIKKDPAQFLQVHGRACKVHLDSAVALAAESPVNMMPWQGDTNNMIDRFDVRAHLDHIPDYTPPLLTTISPEQESDERKCNYERYRGLVQNDFAGISEEQCLYQIYIDELYGGLQRPSEDEKKKLAEKKASIGYTYEDSTVAEVEKAAEKPEEEESAAEEESNSDEDEVIPDIDVEVDVDELNQEQVADLNKQATTYGMADGDFVRMLRKDKEEAEAIKHAKALEEEKAMYSGRRSRRQRREFREKRLRGRKISPPSYARRDSPTYDPYKRSPSESSSESRSRSRSPTPGREEKITFITSFGGSDEEAAAAAAAAAASGVTTGKPPAPPQPGGPAPGRNASARRRSSSSSSSSSASRTSSSRSSSRSSSRSRRGGGYYRSGRHARSRSRSWSRSRSRSRRYSRSRSRGRRHSGGGSRDGHRYSRSPARRGGYGPRRRSRSRSHSGDRYRRGGRGLRHHSSSRSRSSWSLSPSRSRSLTRSRSHSPSPSQSRSRSRSRSQSPSPSPAREKLTRPAASPAVGEKLKKTEPAAGKETGAAKPKLTPQEKLKLRMQKALNRQFKADKKAAQEKMIQQEHERQEREDELRAMARKIRMKERERREKEREEWERQYSRQSRSPSPRYSREYSSSRRRSRSRSRSPHYRH
partner: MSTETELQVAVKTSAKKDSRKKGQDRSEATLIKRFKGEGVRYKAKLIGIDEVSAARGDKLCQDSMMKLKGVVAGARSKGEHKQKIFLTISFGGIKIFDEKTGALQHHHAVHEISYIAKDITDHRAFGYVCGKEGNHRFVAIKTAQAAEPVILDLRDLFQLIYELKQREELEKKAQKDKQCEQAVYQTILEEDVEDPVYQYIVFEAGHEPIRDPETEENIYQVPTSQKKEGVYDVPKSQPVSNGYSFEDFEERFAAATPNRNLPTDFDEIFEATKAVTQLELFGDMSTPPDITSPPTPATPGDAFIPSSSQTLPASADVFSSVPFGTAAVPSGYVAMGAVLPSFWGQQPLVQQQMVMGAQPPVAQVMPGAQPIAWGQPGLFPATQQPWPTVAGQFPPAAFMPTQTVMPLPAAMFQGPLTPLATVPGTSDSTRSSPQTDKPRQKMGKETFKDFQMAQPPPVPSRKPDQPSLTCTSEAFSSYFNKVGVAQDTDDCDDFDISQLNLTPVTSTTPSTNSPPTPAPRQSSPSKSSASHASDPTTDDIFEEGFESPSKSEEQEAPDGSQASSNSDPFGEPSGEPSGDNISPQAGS
B3: CLK4-associating serine/arginine rich protein (Homo sapiens), Q8N2M8 (parent)
chain: B2 chain
partner: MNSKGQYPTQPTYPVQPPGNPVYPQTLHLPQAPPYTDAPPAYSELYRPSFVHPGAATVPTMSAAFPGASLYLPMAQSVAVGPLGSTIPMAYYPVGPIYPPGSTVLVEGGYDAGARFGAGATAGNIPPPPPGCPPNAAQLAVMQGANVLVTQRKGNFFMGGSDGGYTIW
B4: Leucine-zipper-like transcriptional regulator 1 (Homo sapiens), Q8N653 (parent)
chain: MAGPGSTGGQIGAAALAGGARSKVAPSVDFDHSCSDSVEYLTLNFGPFETVHRWRRLPPCDEFVGARRSKHTVVAYKDAIYVFGGDNGKTMLNDLLRFDVKDCSWCRAFTTGTPPAPRYHHSAVVYGSSMFVFGGYTGDIYSNSNLKNKNDLFEYKFATGQWTEWKIEGRLPVARSAHGATVYSDKLWIFAGYDGNARLNDMWTIGLQDRELTCWEEVAQSGEIPPSCCNFPVAVCRDKMFVFSGQSGAKITNNLFQFEFKDKTWTRIPTEHLLRGSPPPPQRRYGHTMVAFDRHLYVFGGAADNTLPNELHCYDVDFQTWEVVQPSSDSEVGGAEVPERACASEEVPTLTYEERVGFKKSRDVFGLDFGTTSAKQPTQPASELPSGRLFHAAAVISDAMYIFGGTVDNNIRSGEMYRFQFSCYPKCTLHEDYGRLWESRQFCDVEFVLGEKEECVQGHVAIVTARSRWLRRKITQARERLAQKLEQEAAPVPREAPGVAAGGARPPLLHVAIREAEARPFEVLMQFLYTDKIKYPRKGHVEDVLLIMDVYKLALSFQLCRLEQLCRQYIEASVDLQNVLVVCESAARLQLSQLKEHCLNFVVKESHFNQVIMMKEFERLSSPLIVEIVRRKQQPPPRTPLDQPVDIGTSLIQDMKAYLEGAGAEFCDITLLLDGHPRPAHKAILAARSSYFEAMFRSFMPEDGQVNISIGEMVPSRQAFESMLRYIYYGEVNMPPEDSLYLFAAPYYYGFYNNRLQAYCKQNLEMNVTVQNVLQILEAADKTQALDMKRHCLHIIVHQFTKVSKLPTLRSLSQQLLLDIIDSLASHISDKQCAELGADI
B5: Keratin, type I cuticular Ha8 (Homo sapiens), O76015 (parent)
chain: B1 chain
partner: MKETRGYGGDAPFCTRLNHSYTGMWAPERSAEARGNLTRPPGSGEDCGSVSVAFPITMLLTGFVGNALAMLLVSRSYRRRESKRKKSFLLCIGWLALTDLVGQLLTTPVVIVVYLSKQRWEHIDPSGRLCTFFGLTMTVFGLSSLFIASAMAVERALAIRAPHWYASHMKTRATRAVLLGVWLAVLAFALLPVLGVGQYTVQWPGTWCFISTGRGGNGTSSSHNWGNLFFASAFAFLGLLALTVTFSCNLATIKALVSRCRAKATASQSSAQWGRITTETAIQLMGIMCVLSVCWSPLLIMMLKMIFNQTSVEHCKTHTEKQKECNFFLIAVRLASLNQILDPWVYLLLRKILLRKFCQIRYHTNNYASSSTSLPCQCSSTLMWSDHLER
B6: Vesicle transport protein USE1 (Homo sapiens), Q9NZ43 (parent)
chain: MAASRLELNLVRLLSRCEAMAAEKRDPDEWRLEKYVGALEDMLQALKVHASKPASEVINEYSWKVDFLKGMLQAEKLTSSSEKALANQFLAPGRVPTTARERVPATKTVHLQSRARYTSEMRSELLGTDSAEPEMDVRKRTGVAGSQPVSEKQLAAELDLVLQRHQNLQEKLAEEMLGLARSLKTNTLAAQSVIKKDNQTLSHSLKMADQNLEKLKTESERLEQHTQKSVNWLLWAMLIIVCFIFISMILFIRIMPKLK
B7: Keratin, type I cuticular Ha8 (Homo sapiens), O76015 (parent)
chain: B1 chain
partner: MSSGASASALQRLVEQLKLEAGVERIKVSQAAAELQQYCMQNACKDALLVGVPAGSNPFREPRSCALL

Variants of: B1
Details: with hm20b_human HMG20B

Variant | effect of a mutation on the interaction
D306A | with no effect

Variants of: B2
Details: with dab1_human DAB1, O75553

Variant | effect of a mutation on the interaction
I163V | with no effect

Variants of: B3
Details: with dazp2_human DAZAP2, Q15038

Variant | effect of a mutation on the interaction
I163V | with no effect

Variants of: B4
Details: with gcp4_human TUBGCP4, Q9UGJ1
Chain of gcp4_human TUBGCP4, Q9UGJ1 (Q9UGJ1 whole entry): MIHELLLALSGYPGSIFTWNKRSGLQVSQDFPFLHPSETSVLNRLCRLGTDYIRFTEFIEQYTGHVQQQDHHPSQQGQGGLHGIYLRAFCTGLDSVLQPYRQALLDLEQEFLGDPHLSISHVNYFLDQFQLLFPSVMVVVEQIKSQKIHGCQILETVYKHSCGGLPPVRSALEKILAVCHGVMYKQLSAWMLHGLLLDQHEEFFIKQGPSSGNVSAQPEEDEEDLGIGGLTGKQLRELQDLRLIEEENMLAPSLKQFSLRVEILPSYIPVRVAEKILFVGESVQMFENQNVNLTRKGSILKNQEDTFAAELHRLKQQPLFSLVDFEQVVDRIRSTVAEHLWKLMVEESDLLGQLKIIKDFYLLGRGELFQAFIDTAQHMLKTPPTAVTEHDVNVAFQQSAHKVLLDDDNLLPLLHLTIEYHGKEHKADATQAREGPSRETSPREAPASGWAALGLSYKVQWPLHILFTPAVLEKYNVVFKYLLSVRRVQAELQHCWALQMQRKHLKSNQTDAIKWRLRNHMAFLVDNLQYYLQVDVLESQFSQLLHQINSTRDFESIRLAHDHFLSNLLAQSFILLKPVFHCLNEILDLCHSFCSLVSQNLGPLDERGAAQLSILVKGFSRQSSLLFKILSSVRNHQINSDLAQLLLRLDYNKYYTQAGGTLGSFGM

Variant | effect of a mutation on the interaction
G663V | disrupting interaction strength

Variants of: B4
Details: with gcp4_human TUBGCP4, Q9UGJ1
Remark: another data set of the same source

Variant | effect of a mutation on the interaction
E721K | with no effect

Variants of: B5
Details: with pe2r3_human PTGER3, P43115

Variant | effect of a mutation on the interaction
N270K | with no effect

Variants of: B5
Details: with pe2r3_human PTGER3, P43115
Remark: another data set of the same source

Variant | effect of a mutation on the interaction
D306A | with no effect

Variants of: B6
Details: with bscl2_human BSCL2, Q96G97
Chain of bscl2_human BSCL2, Q96G97 (Q96G97 whole entry): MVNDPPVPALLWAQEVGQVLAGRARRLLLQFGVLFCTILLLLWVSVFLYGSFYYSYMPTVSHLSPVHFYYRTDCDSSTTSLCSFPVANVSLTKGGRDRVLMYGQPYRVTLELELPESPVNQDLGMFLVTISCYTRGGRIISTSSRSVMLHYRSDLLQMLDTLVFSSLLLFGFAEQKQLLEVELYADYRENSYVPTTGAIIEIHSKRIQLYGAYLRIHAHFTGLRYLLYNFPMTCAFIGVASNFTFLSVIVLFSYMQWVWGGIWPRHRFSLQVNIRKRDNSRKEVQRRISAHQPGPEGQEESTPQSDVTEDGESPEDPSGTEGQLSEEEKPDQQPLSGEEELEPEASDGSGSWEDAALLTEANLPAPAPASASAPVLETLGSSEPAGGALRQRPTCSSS

Variant | effect of a mutation on the interaction
T217M | with no effect

Variants of: B6
Details: with creb3_human CREB3, O43889
Chain of creb3_human CREB3, O43889 (O43889 whole entry): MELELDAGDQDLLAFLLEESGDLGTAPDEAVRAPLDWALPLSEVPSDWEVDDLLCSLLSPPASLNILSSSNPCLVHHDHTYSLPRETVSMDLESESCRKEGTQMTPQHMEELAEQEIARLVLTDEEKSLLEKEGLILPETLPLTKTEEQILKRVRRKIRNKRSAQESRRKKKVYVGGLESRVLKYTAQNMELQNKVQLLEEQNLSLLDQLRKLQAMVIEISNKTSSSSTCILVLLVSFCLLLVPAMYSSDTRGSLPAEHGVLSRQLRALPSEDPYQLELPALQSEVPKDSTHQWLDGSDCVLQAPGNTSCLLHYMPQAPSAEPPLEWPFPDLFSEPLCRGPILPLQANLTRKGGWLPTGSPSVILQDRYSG

Variant | effect of a mutation on the interaction
T217M | with no effect

Variants of: B7
Details: with gbg10_human GNG10, P50151

Variant | effect of a mutation on the interaction
N270K | with no effect
